Tests used:
[1] = target: T1, hCD39-ECD-His (ACRO, CD9-H52H4) (human, UniProt P49961 38-478); test: SPR, Biacore 8K, antibody captured by anti-human IgG Fc, hCD39-ECD-His as analyte
T1 construct: extracellular domain; Bought protein; also called recombinant antigen; target antigen; not shown: His tag
T1 sequence (looked up): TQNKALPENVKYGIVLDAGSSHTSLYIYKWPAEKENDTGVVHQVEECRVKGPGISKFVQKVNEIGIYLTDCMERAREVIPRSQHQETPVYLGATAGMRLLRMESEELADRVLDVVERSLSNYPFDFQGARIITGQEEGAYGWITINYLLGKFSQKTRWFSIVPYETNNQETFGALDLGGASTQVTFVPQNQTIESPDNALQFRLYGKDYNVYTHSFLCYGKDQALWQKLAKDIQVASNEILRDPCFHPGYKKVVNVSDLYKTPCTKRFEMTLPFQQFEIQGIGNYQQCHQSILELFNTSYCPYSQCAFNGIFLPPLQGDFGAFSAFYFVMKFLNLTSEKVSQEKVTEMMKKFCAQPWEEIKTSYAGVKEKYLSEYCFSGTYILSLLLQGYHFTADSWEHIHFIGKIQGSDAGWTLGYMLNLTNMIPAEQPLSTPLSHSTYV
Procedure: The binding kinetics between humanized antibodies and a recombinant antigen were tested using Biacore 8K (GE, biomolecule interaction analyzer). Specifically, an anti-human IgG Fc antibody was directly immobilized on a biosensor chip to capture a test antibody. The antigen hCD39-ECD-His (ACRO, CD9-H52H4) was used as the mobile phase, and 7 concentration gradients (at an initial concentration of 200 nM, 2-fold gradient dilution) were used. The association rate constant ka (M⁻¹ s⁻¹) and dissociation rate constant kd (s⁻¹) were determined. Then, based on the formula KD=kd/ka and the kinetic rate constants, the equilibrium dissociation constant KD (M) of the reaction between the antibody and the relevant target protein was calculated. The humanized antibodies of the present invention maintained high affinity of the chimeric antibody F03 for the target antigen.

[2] = target: T2, human CD39 on the cell surface (human, UniProt P49961 1-510); test: cell-based or functional assay
T2 sequence (looked up): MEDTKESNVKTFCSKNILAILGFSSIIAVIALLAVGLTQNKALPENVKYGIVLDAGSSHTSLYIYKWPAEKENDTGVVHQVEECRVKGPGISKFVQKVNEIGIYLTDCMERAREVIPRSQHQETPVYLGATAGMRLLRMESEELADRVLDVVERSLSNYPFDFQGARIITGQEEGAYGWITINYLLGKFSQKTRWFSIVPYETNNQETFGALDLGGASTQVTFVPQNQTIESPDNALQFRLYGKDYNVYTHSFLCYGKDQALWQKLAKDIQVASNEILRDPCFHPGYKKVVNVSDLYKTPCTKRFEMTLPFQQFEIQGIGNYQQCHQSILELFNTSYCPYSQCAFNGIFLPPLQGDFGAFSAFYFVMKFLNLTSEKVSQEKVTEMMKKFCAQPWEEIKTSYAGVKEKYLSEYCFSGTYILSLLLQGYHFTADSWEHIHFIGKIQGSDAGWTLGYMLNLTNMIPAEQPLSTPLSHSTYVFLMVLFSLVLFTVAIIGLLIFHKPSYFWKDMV

[3] = target: T2, human CD39 on the cell surface; test: FACS on SK-MEL-28 cells (natural human CD39)
[4] = target: T2, human CD39 on the cell surface; test: FACS on CHOK1-hCD39 cells, FITC-labelled goat anti-human IgG Fc secondary antibody, mean fluorescence intensity (MFI)
Procedure: The binding of the chimeric antibody F03 of the present invention to CD39 on the cell membrane surface was assayed by FACS. Specifically, CHOK1-hCD39 cells were collected and added to a 96-well plate at 1-3×10⁵ cells/well, the serially diluted chimeric antibody F03 (diluted with 1×PBS to 16.7 μg/mL as an initial concentration, 3-fold gradient dilution) was added, and the mixture was incubated at 4° C. for 30 min; after washing with PBS, an FITC-labeled goat anti-human IgG Fc secondary antibody (Jackson Immunoresearch, 109095008) diluted at 1:200 was added, and the resulting mixture was incubated at 4° C. for 30 min; after washing with PBS, the cell fluorescence intensity was detected using an FACS instrument (Beckman). Data were processed by GraphPad software.

B1: humanized antibody F03-12 (antibody, human IgG4 S228P, kappa, V domains shown)
VH: QVQLVQSGAEVKKPGASVKVSCKASGYTFTNYWMYWVRQAPGQGLEWMGRIAPSSGATKYNEKFKNRVTLTVDTSISTAYMELSRLRSDDTAVYYCARSGIYYDYDWFFDVWGQGTTVTVSS
VL: DIQMTQSPSSLSASVGDRVTITCKASQDINKYIGWYQQKPGKAPKLLIHYTSTLQPGVPSRFSGSGSGRDYTFTISSLQPEDIATYYCLQYHALLFTFGQGTKLEIKR
notes: Human IgG4 (S228P) and human kappa constant regions
With B1 the Kd [1] was 3.68 nM, the koff [1] was 0.000331 s⁻¹ and the kon [1] was 89900 M⁻¹ s⁻¹. For the same binder, the “Enzymatic activity inhibition (EC50 nM)” value [2] was 0.06 nM and the EC50 [3] was 1.12 nM.

B2: humanized antibody F03-11 (antibody, human IgG4 S228P, kappa, V domains shown)
VH: QVQLVQSGAEVKKPGASVKVSCKASGYTFTNYWMYWVRQAPGQGLEWMGRIAPSSGATKYNEKFKNRVTMTRDTSISTAYMELSRLRSDDTAVYYCARSGIYYDYDWFFDVWGQGTTVTVSS
VL: DIQMTQSPSSLSASVGDRVTITCKASQDINKYIGWYQQKPGKAPKLLIHYTSTLQPGVPSRFSGSGSGRDYTFTISSLQPEDIATYYCLQYHALLFTFGQGTKLEIKR
notes: as for B1
Binder B2 has a Kd [1] of 4.2 nM, a koff [1] of 0.000336 s⁻¹ and a kon [1] of 80100 M⁻¹ s⁻¹. The “Enzymatic activity inhibition (EC50 nM)” value [2] was 0.03 nM and the EC50 [3] was 0.94 nM.

B3: humanized antibody F03-14 (antibody, human IgG4 S228P, kappa)
heavy: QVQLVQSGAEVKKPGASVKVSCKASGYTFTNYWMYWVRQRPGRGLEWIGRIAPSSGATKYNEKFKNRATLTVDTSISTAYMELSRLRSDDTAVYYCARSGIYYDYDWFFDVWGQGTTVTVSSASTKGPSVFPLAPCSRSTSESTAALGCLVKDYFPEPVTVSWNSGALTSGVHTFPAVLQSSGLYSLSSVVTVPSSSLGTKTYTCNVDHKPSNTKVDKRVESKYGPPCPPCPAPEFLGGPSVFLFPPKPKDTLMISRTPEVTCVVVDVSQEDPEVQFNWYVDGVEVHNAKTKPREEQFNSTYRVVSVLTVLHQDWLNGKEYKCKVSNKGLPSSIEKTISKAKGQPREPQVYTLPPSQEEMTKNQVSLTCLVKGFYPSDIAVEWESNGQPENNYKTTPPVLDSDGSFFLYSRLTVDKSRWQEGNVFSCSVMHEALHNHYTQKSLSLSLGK
light: DIQMTQSPSSLSASVGDRVTITCKASQDINKYIGWYQQKPGKAPKLLIHYTSTLQPGVPSRFSGSGSGRDYTFTISSLQPEDIATYYCLQYHALLFTFGQGTKLEIKRTVAAPSVFIFPPSDEQLKSGTASVVCLLNNFYPREAKVQWKVDNALQSGNSQESVTEQDSKDSTYSLSSTLTLSKADYEKHKVYACEVTHQGLSSPVTKSFNRGEC
notes: as for B1
B3 gave a Kd [1] of 4.43 nM, a koff [1] of 0.00031 s⁻¹ and a kon [1] of 69800 M⁻¹ s⁻¹. The “Enzymatic activity inhibition (EC50 nM)” value [2] was 0.05 nM and the EC50 [3] was 0.79 nM.

B4: humanized antibody F03-15 (antibody, human IgG4 S228P, kappa)
heavy: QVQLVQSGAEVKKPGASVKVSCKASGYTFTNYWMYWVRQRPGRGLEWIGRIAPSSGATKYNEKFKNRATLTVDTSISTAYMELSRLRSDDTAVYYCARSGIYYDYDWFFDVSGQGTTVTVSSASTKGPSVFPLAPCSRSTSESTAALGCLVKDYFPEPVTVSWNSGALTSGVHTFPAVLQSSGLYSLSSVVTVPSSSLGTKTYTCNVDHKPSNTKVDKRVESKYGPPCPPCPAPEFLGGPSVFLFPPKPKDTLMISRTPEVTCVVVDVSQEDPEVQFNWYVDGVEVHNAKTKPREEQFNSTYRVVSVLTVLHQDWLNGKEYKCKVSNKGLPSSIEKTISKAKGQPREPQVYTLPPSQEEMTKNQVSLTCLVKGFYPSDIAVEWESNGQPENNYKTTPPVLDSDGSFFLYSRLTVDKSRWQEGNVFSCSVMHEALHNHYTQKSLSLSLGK
light: DIQMTQSPSSLSASVGDRVTITCKASQDINKYIGWYQQKPGKAPKLLIHYTSTLQPGVPSRFSGSGSGRDYTFTISSLQPEDIATYYCLQYHALLFTFGQGTKLEIKRTVAAPSVFIFPPSDEQLKSGTASVVCLLNNFYPREAKVQWKVDNALQSGNSQESVTEQDSKDSTYSLSSTLTLSKADYEKHKVYACEVTHQGLSSPVTKSFNRGEC
notes: as for B1
B4 was tested, and the Kd [1] was 3.33 nM, the koff [1] was 0.000176 s⁻¹ and the kon [1] was 52800 M⁻¹ s⁻¹. For the same binder, the “Enzymatic activity inhibition (EC50 nM)” value [2] was 0.02 nM and the EC50 [3] was 1.11 nM.

B5: humanized antibody F03-8 (antibody, human IgG4 S228P, kappa, V domains shown)
VH: QVQLVQSGAEVKKPGASVKVSCKASGYTFTNYWMYWVRQAPGQGLEWIGRIAPSSGATKYNEKFKNRATLTVDTSISTAYMELSRLRSDDTAVYYCARSGIYYDYDWFFDVWGQGTTVTVSS
VL: DIQMTQSPSSLSASVGDRVTITCKASQDINKYIGWYQQKPGKAPKLLIHYTSTLQPGVPSRFSGSGSGTDFTFTISSLQPEDIATYYCLQYHALLFTFGQGTKLEIKR
notes: as for B1
With B5 the “Enzymatic activity inhibition (EC50 nM)” value [2] was 0.06 nM and the EC50 [3] was 1 nM.

B6: humanized antibody F03-6 (antibody, human IgG4 S228P, kappa, V domains shown)
VH: QVQLVQSGAEVKKPGASVKVSCKASGYTFTNYWMYWVRQAPGQGLEWMGRIAPSSGATKYNEKFKNRVTMTRDTSISTAYMELSRLRSDDTAVYYCARSGIYYDYDWFFDVWGQGTTVTVSS
VL: DIQMTQSPSSLSASVGDRVTITCKASQDINKYIGWYQQKPGKAPKLLIHYTSTLQPGVPSRFSGSGSGTDFTFTISSLQPEDIATYYCLQYHALLFTFGQGTKLEIKR
notes: Human IgG4 (S228P) heavy chain constant region and human kappa constant region
B6 was tested, and the “Enzymatic activity inhibition (EC50 nM)” value [2] was 0.09 nM and the EC50 [3] was 1.27 nM.

B7: humanized antibody F03-7 (antibody, human IgG4 S228P, kappa, V domains shown)
VH: QVQLVQSGAEVKKPGASVKVSCKASGYTFTNYWMYWVRQAPGQGLEWMGRIAPSSGATKYNEKFKNRVTLTVDTSISTAYMELSRLRSDDTAVYYCARSGIYYDYDWFFDVWGQGTTVTVSS
VL: DIQMTQSPSSLSASVGDRVTITCKASQDINKYIGWYQQKPGKAPKLLIHYTSTLQPGVPSRFSGSGSGTDFTFTISSLQPEDIATYYCLQYHALLFTFGQGTKLEIKR
notes: as for B1
For B7, the “Enzymatic activity inhibition (EC50 nM)” value [2] was 0.15 nM and the EC50 [3] was 0.89 nM.

B8: humanized antibody F03-13 (antibody, human IgG4 S228P, kappa, V domains shown)
VH: QVQLVQSGAEVKKPGASVKVSCKASGYTFTNYWMYWVRQAPGQGLEWIGRIAPSSGATKYNEKFKNRATLTVDTSISTAYMELSRLRSDDTAVYYCARSGIYYDYDWFFDVWGQGTTVTVSS
VL: DIQMTQSPSSLSASVGDRVTITCKASQDINKYIGWYQQKPGKAPKLLIHYTSTLQPGVPSRFSGSGSGRDYTFTISSLQPEDIATYYCLQYHALLFTFGQGTKLEIKR
notes: as for B1
With B8 the “Enzymatic activity inhibition (EC50 nM)” value [2] was 0.09 nM and the EC50 [3] was 1 nM.

B9: chimeric antibody F03 (antibody, human IgG4 S228P, kappa, V domains shown)
VH: QVQLQQPGAELVKPGASVKLSCKTSGYTFTNYWMYWVKHRPGRGLEWIGRIAPSSGATKYNEKFKNKATLTVDKPSSTAYMQLSSLTSEDSAVYYCARSGIYYDYDWFFDVSGTGTTVTVSS
VL: DIQMTQSPSSLSASLGGKVTITCKASQDINKYIGWYQHAPGKGPRLLIHYTSTLQPGIPSRFSGSGSGRDYSLSISNLEPEDIATYYCLQYHALLFTFGSGTKLELKR
notes: Variable regions of murine mF03 on human IgG4 (S228P) and human kappa constant regions; expressed in CHO-S cells
Work on B9 yielded an EC50 [4] of 2.19 mg/L, a Kd [1] of 2.67 nM and a koff [1] of 0.000252 s⁻¹. For the same binder, the kon [1] was 94300 M⁻¹ s⁻¹, the “Enzymatic activity inhibition (EC50 nM)” value [2] was 0.09 nM and the EC50 [3] was 2.07 nM.

From patent publication US20250011455A1 (HANGZHOU BANGSHUN PHARMACEUTICAL, published 2025)
